{"source": "the DeepSol protein solubility set"}
{"experiment": "soluble on expression in E. coli; label from the status in PepcDB or PDB records"}
{"sequence": "MITSPTNLNSLPIPPGDFGLPWLGETLNFLNDGDFGKKRQQQFGPIFKTRLFGKNVIFISGALANRFLFTKEQETFQATWPLSTRILLGPNALATQMGEIHRSRRKILYQAFLPRTLDSYLPKMDGIVQGYLEQWGKANEVIWYPQLRRMTFDVAATLFMGEKVSQNPQLFPWFETYIQGLFSLPIPLPNTLFGKSQRARALLLAELEKIIKARQQQPPSEEDALGILLAARDDNNQPLSLPELKDQILLLLFAGHETLTSALSSFCLLLGQHSDIRERVRQEQNKLQLSQELTAETLKKMPYLDQVLQEVLRLIPPVGGGFRELIQDCQFQGFHFPKGWLVSYQISQTHADPDLYPDPEKFDPERFTPDGSATHNPPFAHVPFGGGLRECLGKEFARLEMKLFATRLIQQFDWTLLPGQNLELVVTPSPRPKDNLRVKLHSLM", "soluble on expression in E. coli": "soluble"}
{"sequence": "MITVNTLQKMKAAGEKIAMLTAYESSFAALMDDAGVDVLLVGDSLGMAVQGRQSTLPVSLRDMCYHTECVARGAKNAMIVSDLPFGAYQQSKEQAFAAAAELMAAGAHMVKLEGGVWMAETTEFLQMRGIPVCAHIGLTPQSVFAFGGYKVQGRGGKAQALLNDAKAHDDAGAAVVLMECVPAELAKKVTESVSCPTIGIGAGVDCDGQVLVMHDMLGIFPGKTAKFVKNFMQGQSSIQAAVRAYVAEVKAKTFPAAEHIFAD", "soluble on expression in E. coli": "not soluble"}
{"sequence": "MIVPPPEELTGARVLAYALIDESTPYSGRITLYVDGELIGPVPRLVIALNNYGPDDYLLLYCNENWDVIGAGGHASLVAAKESANIAYPGVASRWQDVA", "soluble on expression in E. coli": "not soluble"}
{"sequence": "MIWNETIECMDRESLRKIQSIRLKKIVDYVYHNTPFYRKKMQEMGITPDDINTIDDIVKLPFTTKHDLRDNYPFGLCAVPMSQIVRIHASSGTTGKPTVVGYTRKDLSSWAECISRAFTAYGAGRSDIFQVSYGYGLFTGGLGAHAGAENIGASVIPMSSGNTEKQITLMHDFGSTVLCCTPSYALYLADAIKDSGYPREEFQLKVGALGAEPWTENMRHEIEEKLGIKAYDIYGLSEIAGPGVGYECECQHGTHLNEDHYFPEIIDPNTLQPVEPGQTGELVFTHLTKEGMPLLRYRTRDLTALHYDKCSCGRTLVRMDRILGRSDDMLIIRGVNVFPTQIESVILEMEEFEPHYLLIVGRENNTDTMELQVEVRPDFYSDEINRMLALKKKLASRLQSVLGLGVNVKLVEPRSIERSVGKAKRVIDNRKI", "soluble on expression in E. coli": "not soluble"}
{"sequence": "MIYDFTTKISRKNLGSLKWDLMYSQNPEVGNEVVPLSVADMEFKNPPELIEGLKKYLDETVLGYTGPTEEYKKTVKKWMKDRHQWDIQTDWIINTAGVVPAVFNAVREFTKPGDGVIIITPVYYPFFMAIKNQERKIIECELLEKDGYYTIDFQKLEKLSKDKNNKALLFCSPHNPVGRVWKKDELQKIKDIVLKSDLMLWSDEIHFDLIMPGYEHTVFQSIDEQLADKTITFTAPSKTFNIAGMGMSNIIIKNPDIRERFTKSRDATSGMPFTTLGYKACEICYKECGKWLDGCIKVIDKNQRIVKDFFEVNHPEIKAPLIEGTYLQWIDFRALKMDHKAMEEFMIHKAQIFFDEGYIFGDGGIGFERINLAAPSSVIQESLERLNKALKDLKNRHLK", "soluble on expression in E. coli": "soluble"}
{"sequence": "MIYFIRKKKWLKQLEKGEAMKYAILIGDGMADYPIEKLGNRTILQAARTPAMDSIAARGRAGLAKTVPDSFPPGSDVANMSILGYDPATYYSGRAPLEAASMGVALAADDVAFRCNLITTEHGMIKDYSAGHISSDEAEILIDTLDYELSTENIRFYPGISYRHLIVAGNNLGAETECTPPHDITGEKIDKYLPRGKDGEFFSELIEASKVVLELHPVNLKRVEEGKNPANSIWVWGQGYAPKFTAFMKLYGKKGAVISAVDLLKGIGIYAGLDVIEVHGATGYLDTNYEGKVRAAIEALKTRDLVFVHVEAPDEAGHEGSIEKKLKAVEDFDSRIVAPILEYAENSDEPFTILVLPDHPTPISVKTHTRDPIPFAIYRTDKPETDNVEAFDEESVKNGSMGLVKASDLIGILIKS", "soluble on expression in E. coli": "not soluble"}
{"sequence": "MKAAPLIGISRHRLSTDGEGVTTLVAFHGCPLRCKYCLNPQSLHSEGIWKNYDCEQLYEEVRQDELYFLATNGGITFGGGEPCLQSDFIYEFRQLCGQEWQLSVETSLNVTQENIEKLVPVVDSYIIDIKDINNTIYQKYTGKNNEKVLHNLQYLIEHGKNEQIIVRTPVIPAYNTENDVDNSIRLLKEMGIIQFDRFTYKTPNNCQP", "soluble on expression in E. coli": "not soluble"}
